In patent US20140256614:

Target: T1, MK2-activating peptide (transduction domain YARAAARQARA coupled to a Kaposin-derived region)
T1 chain: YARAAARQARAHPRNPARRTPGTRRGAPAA

B1: MK2 (endogenous, in mouse embryonic fibroblasts, MEF) (protein)
chain: MLSGSPGQTPPAPFPSPPPPAPAQPPPPFPQFHVKSGLQIRKNAITDDYKVTSQVLGLGINGKVLRIFDKRTQQKFALKMLQDCPKARREVELHWRASQCPHIVHIVDVYENLYAGRKCLLIVMECLDGGELFSRIQDRGDQAFTEREASEIMKSIGEAIQYLHSINIAHRDVKPENLLYTSKRPNAILKLTDFGFAKETTSHNSLTTPCYTPYYVAPEVLGPEKYDKSCDMWSLGVIMYILLCGYPPFYSNHGLAISPGMKTRIRMGQYEFPNPEWSEVSEEVKMLIRNLLKTEPTQRMTITEFMNHPWIMQSTKVPQTPLHTSRVLKEDKERWEDVKEEMTSALATMRVDYEQIKIKKIEDASNPLLLKRRKKARAVEDAALAH
B1 was tested, and the “phosphorylated HSP27 by immunoblot, time course at 50 µM peptide, MEF” value was “significant MK2 activation was observed by 15 minutes of treatment”.
